The values below come from article PMC7374170 (2020).

As a reminder, the Kd is the constant that tells how readily two partners part at equilibrium.

B1: TRIB3 (tribbles pseudokinase 3), purified protein (natural protein)
chain: MRATPLAAPAGSLSRKKRLELDDNLDTERPVQKRARSGPQPRLPPCLLPLSPPTAPDRATAVATASRLGPYVLLEPEEGGRAYQALHCPTGTEYTCKVYPVQEALAVLEPYARLPPHKHVARPTEVLAGTQLLYAFFTRTHGDMHSLVRSRHRIPEPEAAVLFRQMATALAHCHQHGLVLRDLKLCRFVFADRERKKLVLENLEDSCVLTGPDDSLWDKHACPAYVGPEILSSRASYSGKAADVWSLGVALFTMLAGHYPFQDSEPVLLFGKIRRGAYALPAGLSAPARCLVRCLLRREPAERLTATGILLHPWLRQDPMPLAPTRSHLWEAAQVVPDGLGLDEAREEEGDREVVLYG

“And” between values parts separate entries of the source, which are not always exact repeats. Equal values may be shown once.

Test [1] concerns the target T1, SAH-JGZ4, stapled JGZ peptide (UniProt P00533, two units of nonnatural alkenyl amino acids S5 at the relative positions i and i + 4, cross-linked by ring-closing olefin metathesis). Briefly: FP.
Test [2] has as its target JGZ-M4. The experiment in a line: SPR. (SPR reads the build-up and loss of mass on a sensor chip optically.)
Test [3] concerns the target JGZ-M15. Briefly: SPR.
Test [4] concerns the target JGZ-M2. Briefly: SPR.
For test [5], the target named is JGZ-M1. Briefly: SPR.
The target of test [6] is JGZ-M10. The experiment in a line: SPR.
For test [7], the target named is JGZ-M6. The experiment in a line: SPR.
The target in test [8] is JGZ-M12. The experiment in a line: SPR.
The target in test [9] is JGZ-M11. Briefly: SPR.
In test [10] the target is JGZ-M13. Briefly: SPR.
The target in test [11] is SAH-JGZ2. The experiment in a line: SPR.
Test [12] deals with T1, SAH-JGZ4, stapled JGZ peptide. The experiment in a line: SPR.
The target is the same in test [13]. The experiment in a line: SPR. This is another data set of the same source.
The target in test [14] is B1. Briefly: SPR.

Regarding B1, the Kd in test [1] turned out to be 55.4 nM; in [2], 2470 nM; in test [3], 1160 nM; in [4] it was 424 nM; in test [5], 642 nM; in test [6] it was 337 nM. Further, the Kd was 1210 nM in [7]; 402 nM in test [8]; 892 nM in [9]; 796 nM in test [10]; 235 nM in test [11]; 84.1 nM and 66.1 nM in test [12]. In addition, the Kd in test [13] stood at 137 nM.
NQALLRIVKETEFK [JMA2 peptide with the Leu-to-Val substitution] had a Kd in [14] of 5370 nM.
NQALLRIIKETEFK [JMA2 peptide with the Leu-to-Ile substitution] returned a Kd in test [14] of 1060 nM.
